Patent US20180305451A1 (COMPUGEN, published 2018)
Values belong to the binder of their own block, whether it stands above or below them.

How the values were obtained:
[1] = molecular target: T1, HIDE1_HH-1 (Human ECD + human IgG1 Fc mutated C220S at hinge), without SP (human); assay: SPR (ProteOn), Fab PPE over captured HIDE1-HH-1, 1:1 fit
T1 construct: Batch #280 in the Serotec and phage display work; also called HIDE1 hECD-hIg; HIDE1 (H:H) recombinant Fc fusion protein
Description: Preliminary Fab binding kinetics were determined using Fab PPEs produced as described in paragraph [001064] (“Fab PPE production”)[001064]. Studies were conducted using Biacore 3000 and ProteOn XPR 36 instruments at 22° C.
A high density goat anti-human Fc antibody (Invitrogen) was immobilized by standard amine coupling over all lanes of a GLC chip using a ProteOn XPR 36 biosensor (Biorad). This surface was used to capture the recombinant HIDE1-H:H fusion protein (GenScript Lot 393383-21, batch #280) or a control Fc fusion protein (CD155, Sino Biologicals) in the vertical flow-cell direction at a concentration of ˜0.5 μg/mL for 90 seconds.

mouse HIDE1 = molecular target: T2, mouse HIDE1 (mouse, UniProt Q75VT8 22-222); assay: FACS on 293T-moHIDE1 cells, human IgG4
T2 construct: Endogenous on EL4, YAC-1, J774A.1/J774A.2 cells; also called AB124611; mHIDE1
T2 sequence: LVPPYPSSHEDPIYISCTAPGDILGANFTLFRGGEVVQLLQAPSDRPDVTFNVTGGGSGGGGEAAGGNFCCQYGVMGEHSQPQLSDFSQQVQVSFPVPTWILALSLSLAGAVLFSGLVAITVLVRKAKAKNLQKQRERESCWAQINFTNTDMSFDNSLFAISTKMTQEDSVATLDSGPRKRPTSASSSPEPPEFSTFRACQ
Description: (§1) FACS screening of reformatted IgG4 antibodies: The cell lines described in paragraph [001066] (“FACS screening of PPE”) were mixed with FACS buffer containing the purified anti-HIDE1 IgGs or isotype controls. […] Cells were washed again and fluorescence was detected using an Intellicyt HTFC screening system (Intellicyt). Data were analyzed using FCS Express (DeNovo) and plotted for affinity calculations (KD) in GraphPad Prism (GraphPad Software, Inc.). Note that each anti-HIDE1 antibody was tested over a titration range from 0-80 μg/mL.
(§2) Overview of FACS binding results for human IgG4 antibodies reformatted from Fab screening hits. […] IgGs from the same H-CDR3 family are indicated by the same color, either blue or green. CPA.12.003 & CPA.12.008 have identical heavy chain CDR-3 regions and minor differences in framework regions or other CDRs. The same holds for CPA.12.004 & CPA.12.013. N.B. not binding.

human HIDE1 = molecular target: T3, human HIDE1 (human, UniProt A8MVS5 20-230); assay: FACS titration on 293T-huHIDE1 cells, human IgG4 (preliminary FACS KD)
T3 construct: Endogenous on U937, HL-60, THP-1 cells, blood monocytes, AML blasts and dendritic cells; also called C19orf38; hHIDE1
T3 sequence: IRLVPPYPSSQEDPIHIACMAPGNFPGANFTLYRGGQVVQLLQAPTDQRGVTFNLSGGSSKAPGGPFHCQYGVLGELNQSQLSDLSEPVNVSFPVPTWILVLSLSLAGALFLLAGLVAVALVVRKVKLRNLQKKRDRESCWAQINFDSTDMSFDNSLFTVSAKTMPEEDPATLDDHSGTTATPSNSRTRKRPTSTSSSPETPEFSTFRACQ
Description: as §1, §2

T1 sequence (chain, as listed by the source C220S C220S limits assumed): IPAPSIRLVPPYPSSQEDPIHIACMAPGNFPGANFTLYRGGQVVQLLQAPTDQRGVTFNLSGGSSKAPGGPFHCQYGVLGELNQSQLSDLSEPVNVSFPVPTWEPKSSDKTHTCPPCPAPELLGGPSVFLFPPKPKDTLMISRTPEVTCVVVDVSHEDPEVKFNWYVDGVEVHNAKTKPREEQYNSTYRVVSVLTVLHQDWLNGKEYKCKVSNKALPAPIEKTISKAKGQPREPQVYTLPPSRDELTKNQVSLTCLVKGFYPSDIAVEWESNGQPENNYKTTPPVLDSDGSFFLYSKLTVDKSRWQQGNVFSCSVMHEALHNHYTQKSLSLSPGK

B1: CPA.12.004 Fab (A04 S397-01.D06) (Fab, V domains shown)
VH: EVQLVETGGGLIQPGRSLRLSCVASDFRFSNHAMHWVRQAPGKELEWVAVISSDGSNRQYAYSVKGRFTISRDNSKNTLYLEMNILGPEDTAVYFCVRSHLGPEWYYGMDVWGQGTTVTVSS
VL: DIQMTQSPSSLSTSVGDSVTITCRSSQSISTFLSWFQHKPGKAPNLLIYDASSLQSGVPSRFSGSGSGTDFTLTISSLQPEDFATYYCQQSDYLPFTFGPGTKVEIKR
notes: XOMA031 library Fab in periplasmic extract
Kd [1]: 2.1 nM
koff [1]: 0.0033 s⁻¹
kon [1]: 1.6e+06 M⁻¹ s⁻¹

B3: CPA.12.006 Fab (A07 S398-01.D09) (Fab, V domains shown)
VH: EVQLVESGGGVVQPGRSLRLSCAASGFTFSSFAMHWVRQAPGKGPEWLGIILYEGGHVVYADSVRGRLTISRDNSKNTLYLQMDSLRDEDTAVYYCAKGFYHAFDVWGQGTMVTVSS
VL: QAVLTQPASLSASPGASASLTCTLRSGINVGTYRIYWYQQKPGSPPQYLLRYKSDSDKQQGSGVPSRFSGSKDASANAGILLISGLQSEDEADYYCMIWHSSAWVFGGGTQLTVLG
notes: as for B1
Kd [1]: 3.9 nM
koff [1]: 0.00027 s⁻¹
kon [1]: 68000 M⁻¹ s⁻¹

B4: CPA.12.001 Fab (A01 S397-01.A04) (Fab, V domains shown)
VH: QVQLVESGGGLVQPGRSLRLSCAASGFTFSSYGMHWVRQAPGKGLEWVAVISYDGSNKYYADSVKGRFTISRDNSKNTLYLQMNSLRAEDTAVYYCASEGVDFWSGLDYWGQGTLVTVSS
VL: QSALTQPRSASGSAGQSVTISCTGTSSDVGGHNYVSWYQQFPGKAPKLLIYEVSHRPSGVPDRFSGSKSGNTASLTVSGLQAEDEADYYCSSYADLNNLMFGGGTKLTVLG
notes: as for B1
Kd [1]: 1.2 nM
koff [1]: 0.00081 s⁻¹
kon [1]: 670000 M⁻¹ s⁻¹

B6: CPA.12.011 Fab (B03 S400-01.E01) (Fab, V domains shown)
VH: EVQLVESGGGLVQPGGTLRLSCVVSGFTFSSYAMSWVRQAPGKGLEWVSGISGSGGSTYISSGRTYRSTYYADSVKGRFTIARDNSENTLFLQLNSLRAEDTAIYYCAKVNSGEYAHTFDYWGQGTLVTVSS
VL: DIQMTQSPSSLSASVGDRVTITCRASQGISNYLVWYQQKPGKAPKSLIYAASSLQSGVPSRFSGSGSGTDFTLTISSLQPEDFATYYCQQYNYYPITFGQGTRLEIKR
notes: as for B1
Kd [1]: 0.64 nM
koff [1]: 0.00019 s⁻¹
kon [1]: 290000 M⁻¹ s⁻¹

B7: CPA.12.005 Fab (A06 S397-01.H07) (Fab, V domains shown)
VH: QVQLVESGGGVVQPGRSLRVSCAVSGFTFSSYGMHWVRQAPGGGLEWVAVMSYEGSFRHYADSVKGRFTISRDNSKNTLFLQMDSLRAEDTAVYYCARDRPAGYTSGWGILDYWGQGTLVTVSS
VL: EIVMTQSPATLSLSPGERATLSCRASQSVSSYLAWYQQKPGQAPRLLIYDASNRATGIPARFSGSGSGTDFTLTISSLEPEDFAVYYCQQRSNWPLTFGGGTKVDIKR
notes: as for B1
Kd [1]: 2.3 nM
koff [1]: 0.001 s⁻¹
kon [1]: 440000 M⁻¹ s⁻¹

B10: CPA.12.002 Fab (A02 S397-01.A08) (Fab, V domains shown)
VH: EVQLVESGGGLVQPGRSLRLSCAASGFTFSSYAMHWVRQVPGKGLEWVAVISYDGSNKYYADSVKGRFTISRDNSKNTLYLQMNSLRAEDTAVYYCAKPMYSSGWYPLGYWGQGTLVTVSS
VL: DIVMTQTPLSLPVTPGQPASISCRSSQSPLDTDGNTYLDWYLQRPGQSPQLLIYTLSNRASGVPDRFSGSGSGTDFTLKISRVEAEDVGIYYCMQRIQYPLTFGPGTRLEIKR
notes: as for B1
Kd [1]: 8 nM
koff [1]: 0.00083 s⁻¹
kon [1]: 100000 M⁻¹ s⁻¹

B12: CPA.12.007 Fab (A08 S398-01.E08) (Fab, V domains shown)
VH: EVQLVESGGGVVQPGESLRLSCAASGFTFSSYGFHWVRQSPGEGLEWLAVISYDGTSKSYADSVKGRFTVSRDNSKETLYLQLSSLRREDTALYYCARDTWGYYYGMDVWGQGTTVTVSS
VL: DIQMTQSPSFLSGSVGDRVSISCRASQDIRSHLAWYQRKPGEAPKLLIYTASSLQGGVPLRFSGSGSGTEFTLTISSLQPEDSATYYCQHLHLYPLTFGGGTKLEIKR
notes: as for B1
Kd [1]: 1.6 nM
koff [1]: 0.00034 s⁻¹
kon [1]: 210000 M⁻¹ s⁻¹

B13: CPA.12.009 Fab (A10 S398-02.A04) (Fab, V domains shown)
VH: QMQLVQSGAEVKKPGASVKVSCKASGYTFTTHAFSWVRQAPGLGLEWMGWISTYNGNTKYEQKFQGRVTLTTDSSTNTAYMELRSLRSDDTAVYYCVRDSRAFDVWGQGTMVTVSS
VL: DIQLTQSPSFLSASVGDRVTITCRASQGINSYLAWYQQKPGAAPKLLIYAASTLQSGVPSRFSGSGSGTEFTLTISSLQPEDFATYYCQQLNTYPLIFGQGTRLEIKR
notes: as for B1
Kd [1]: 1 nM
koff [1]: 0.0014 s⁻¹
kon [1]: 1.4e+06 M⁻¹ s⁻¹

B14: CPA.12.003 Fab (A03 S397-01.A12) (Fab, V domains shown)
VH: QVQLQESGPGLVTPSETLSLTCTVSGGSISSVSYYWGWVRQPPGKGLEWIGSIYYSGTTAHNPSLKSRVTMAVDTSKNQFSLSLSSVTAADTAVYFCARGWRYYEDYYFDHWGQGTLVTVSS
VL: DIQMTQSPSTLSASVGDRVTITCRASQSINRWLAWYQQKPGKAPKILIYTASSLESGVPSRFSGSGSGTEFTLTISSLQPDDFATYYCQQYNSYPITFGQGTRLEIKR
notes: as for B1
Kd [1]: 0.91 nM
koff [1]: 0.00022 s⁻¹
kon [1]: 250000 M⁻¹ s⁻¹

Continued, in another order:

Kd (human HIDE1): 1.4 nM
B2: CPA.12.004 human IgG4 (antibody, V domains shown)
VH: B1 VH
VL: B1 VL
notes: also called CPA.12.004-H4
binding result (mouse HIDE1): no binding (tested: titration 0-80 µg/mL)

Kd (human HIDE1): 61 nM
B5: CPA.12.001 human IgG4 (antibody, V domains shown)
VH: B4 VH
VL: B4 VL
notes: also called CPA.12.001-H4
binding result (mouse HIDE1): no binding (tested: titration 0-80 µg/mL)

Kd (human HIDE1): 4 nM
B8: CPA.12.005 human IgG4 (antibody, V domains shown)
VH: B7 VH
VL: B7 VL
notes: also called CPA.12.005-H4
binding result (mouse HIDE1): no binding (tested: titration 0-80 µg/mL)

Kd [1]: 37 nM
koff [1]: 0.0037 s⁻¹
kon [1]: 99000 M⁻¹ s⁻¹
B9: CPA.12.014 Fab (B12 S404-01.E06) (Fab, V domains shown)
VH: QVTLKESGPALVTPTQNLTLTCTVSGGSISSSSYYWGWIRQPPGKGLEWIGSIYYSGSTYYNPSLKSRVTISVDTSKNQFSLKLSSVTAADTAVYYCARRRNSSGWFYFDYWGQGTLVTVSS
VL: QSVLTQPPSVSGAPRQRVTISCSGSRSNIGDNAVNWYQHPPGKAPKLLIYYDDLLPSGVSDRFSGSKSGTSASLAISGLQSEDEADYYCATWDDSLNGHVFGTGTKLTVLG
notes: as for B1

Kd (human HIDE1): 6.4 nM
B11: CPA.12.002 human IgG4 (antibody, V domains shown)
VH: B10 VH
VL: B10 VL
notes: also called CPA.12.002-H4
binding result (mouse HIDE1): no binding (tested: titration 0-80 µg/mL)

Kd (human HIDE1): 18 nM
B15: CPA.12.003 human IgG4 (antibody, V domains shown)
VH: B14 VH
VL: B14 VL
notes: also called CPA.12.003-H4
binding result (mouse HIDE1): no binding (tested: titration 0-80 µg/mL)
